Laboratory results taken from paper PMC13544220, “Glycemic and bodyweight effects of GIPR coding variation reflect differences in surface expression and intrinsic functional impairment” (Science Advances, 2026).

Tests used:
Assay type in all cases: cell-based, human
[1] = test system: wild-type and variant SNAP-GIPR; test: Surface SNAP-GIPR expression (SNAP-tag labelling) in AD293 cells; conditions: for AD293 Surface: Fig S3E, mean; for Surface SNAP-GIPR expression: sheet Fig 1C;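 on all read-outs here: scaled to the experimental average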
Summary of the method: (§1)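 Read-out: whole-cell fluorescence of surface-only SNAP label (Alexa Fluor 647, 500 nM, 10 min, RT), wide-field 20X, several FOVs per well. Flat-field corrected, phase-contrast masked, nontransfected-well signal subtracted; normalized to experiment mean or wild-type.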

[2] = test system: wild-type and variant SNAP-GIPR; test: Surface SNAP-GIPR expression (SNAP-tag labelling) in INS-1 cells; conditions: Fig 4G; Mean
Summary of the method: as §1

[3] = test system: wild-type and variant SNAP-GIPR; test: Single-concentration GIP cAMP response by HTRF in AD293 cells; conditions: Fig S3F, HTRF, mean;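 further: ratio to experiment-wide average response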
Procedure: (§2) All variants were tested in parallel on each occasion to control for transfection efficiency differences between experiments.

[4] = test system: wild-type and variant SNAP-GIPR; test: Single-concentration GIP cAMP response by HTRF in INS-1 cells; conditions: Fig S3E, mean
Procedure: as §2

[5] = test system: wild-type and variant SNAP-GIPR; test: cADDis cAMP imaging in AD293 cells, ensemble, expression-matched and per decile; conditions: Fig S3F, cADDis, mean;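 further: Ensemble cells as % of IBMX/FSK response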
Summary of the method: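 Surface GIPR and cAMP are measured in individual AD293 cells coexpressing SNAP-tagged receptor and the green cADDis biosensor, imaged live at 37°C. Responses are reported ensemble, expression-matched against wild-type deciles with extremes trimmed, or within each variant's own surface deciles.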

[6] = test system: wild-type and variant SNAP-GIPR; test: Constitutive and agonist-mediated internalization, reversible SNAP-tag labelling, AD293 cells; set-up: key to Internalisation, Vehicle / Internalisation, +GIP / Internalisation, GIP-only: % internalization: residual fluorescence after Mesna vs pre-Mesna; Surface expression: unit not given here; conditions: Mean; for +GIP internalisation (100 nM) / GIP-specific internalisation (100 nM) / Constitutive internalisation (100 nM) / Surface expression: Fig 4E; for +GIP internalisation (100 nM) / GIP-specific internalisation (100 nM): GIP 100 nM; for Internalisation, +GIP / Internalisation, GIP-only / Internalisation, Vehicle: Fig S4C, AD293
Summary of the method: (§3)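 Percentage internalization is read as the fraction of specific SNAP fluorescence that survives Mesna stripping, compared with the image taken before Mesna. Wells are imaged in TNE buffer at pH 8.6 and again after 10 min.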

[7] = test system: wild-type and variant SNAP-GIPR; test: Constitutive and agonist-mediated internalization, reversible SNAP-tag labelling, INS-1 cells; set-up: key to Internalisation, GIP-only / Internalisation, Vehicle / Internalisation, +GIP: % internalization: residual fluorescence after Mesna vs pre-Mesna; conditions: Mean; for +GIP internalisation (100 nM) / GIP-specific internalisation (100 nM) / Constitutive internalisation (100 nM): Fig 4G; for +GIP internalisation (100 nM) / GIP-specific internalisation (100 nM): GIP 100 nM; for Internalisation, +GIP / Internalisation, GIP-only / Internalisation, Vehicle: Fig S4C, INS-1
Summary of the method: as §3

[8] = column repeated, paired with cAMP 100 nM

B1: R136W (protein, UniProt P48546 22-466, looked up, variant R136W)
Gastric inhibitory …: RAETGSKGQTAGELYQRWERYRRECQETLAAAEPPSGLACNGSFDMYVCWDYAAPNATARASCPWYLPWHHHVAAGFVLRQCGSDGQWGLWRDHTQCENPEKNEAFLDQRLILEWLQVMYTVGYSLSLATLLLALLILSLFRRLHCTRNYIHINLFTSFMLRAAAILSRDRLLPRPGPYLGDQALALWNQALAACRTAQIVTQYCVGANYTWLLVEGVYLHSLLVLVGGSEEGHFRYYLLLGWGAPALFVIPWVIVRYLYENTQCWERNEVKAIWWIIRTPILMTILINFLIFIRILGILLSKLRTRQMRCRDYRLRLARSTLTLVPLLGVHEVVFAPVTEEQARGALRFAKLGFEIFLSSFQGFLVSVLYCFINKEVQSEIRRGWHHCRLRRSLGEEQRQLPERAFRALPSGSGPGEVPTSRGLSSGTLPGPGNEASRELESYC
AD293 Surface [1, 8]: 1.539 | AD293 Surface ([1]; paired with cAMP 100 pM): 1.539 | Surface SNAP-GIPR expression ([1]; replicate 1): 1.301 | Surface SNAP-GIPR expression ([1]; replicate 2): 1.896 | Surface SNAP-GIPR expression ([1]; replicate 3): 1.558 | Surface SNAP-GIPR expression ([1]; replicate 4): 1.426 | Surface SNAP-GIPR expression ([1]; replicate 5): 1.728 | Surface SNAP-GIPR expression ([1]; replicate 6): 1.162 | Surface SNAP-GIPR expression ([1]; replicate 7): 1.369 | Surface SNAP-GIPR expression ([1]; replicate 8): 1.722 | Surface SNAP-GIPR expression ([1]; replicate 9): 1.795 | Surface SNAP-GIPR expression ([1]; replicate 10): 1.62 | Surface SNAP-GIPR expression ([1]; replicate 11): 1.44 | Surface SNAP-GIPR expression ([1]; replicate 12): 1.625 | Surface SNAP-GIPR expression ([1]; replicate 13): 1.681 | Surface SNAP-GIPR expression ([1]; replicate 14): 1.394 | Surface SNAP-GIPR expression ([1]; replicate 15): 1.54 | Surface SNAP-GIPR expression ([1]; replicate 16): 1.63 | Surface SNAP-GIPR expression ([1]; replicate 17): 1.488 | Surface SNAP-GIPR expression ([1]; replicate 18): 1.722 | Surface SNAP-GIPR expression ([1]; replicate 19): 2.073 | Surface SNAP-GIPR expression ([1]; replicate 20): 1.443 | Surface SNAP-GIPR expression ([1]; replicate 21): 1.607 | Surface SNAP-GIPR expression ([1]; replicate 22): 1.548 | Surface SNAP-GIPR expression ([1]; replicate 23): 1.562 | Surface SNAP-GIPR expression ([1]; replicate 24): 1.636 | Surface SNAP-GIPR expression ([1]; replicate 25): 1.259 | Surface SNAP-GIPR expression ([1]; replicate 26): 1.57 | Surface SNAP-GIPR expression ([1]; replicate 27): 1.295 | Surface SNAP-GIPR expression ([1]; replicate 28): 1.198 | Surface SNAP-GIPR expression ([1]; replicate 29): 1.582 | Surface SNAP-GIPR expression ([1]; replicate 30): 1.517 | Surface SNAP-GIPR expression ([1]; replicate 31): 1.447 | Surface SNAP-GIPR expression ([1]; replicate 32): 1.457 | Surface SNAP-GIPR expression ([1]; replicate 33): 1.855 | Surface SNAP-GIPR expression ([1]; replicate 34): 1.376 | Surface SNAP-GIPR expression ([1]; replicate 35): 1.615 | Surface SNAP-GIPR expression ([1]; replicate 36): 1.418 | Surface SNAP-GIPR expression ([1]; replicate 37): 1.346 | Surface SNAP-GIPR expression ([1]; replicate 38): 1.685 | Surface SNAP-GIPR expression ([1]; replicate 39): 1.551 | Surface SNAP-GIPR expression ([1]; replicate 40): 1.483 | Surface SNAP-GIPR expression ([1]; replicate 41): 1.492 | Surface expression [2]: 1.406 | AD293 100 pM HTRF [3]: 0.0806 | AD293 100 nM HTRF [3]: 1.324 | INS-1 cAMP (100 nM) [4]: 1.164 | AD293 100 pM cADDis [5]: 19.5296 | AD293 100 nM cADDis [5]: 38.38 | +GIP internalisation (100 nM) [6]: 0.7747 | GIP-specific internalisation (100 nM) [6]: 0.1529 | Constitutive internalisation (100 nM) [6]: 0.6218 | Surface expression [6]: 1.49 | Internalisation, +GIP [6]: 52.0458 | Internalisation, GIP-only [6]: 10.2879 | Internalisation, Vehicle [6]: 41.7579 | +GIP internalisation (100 nM) [7]: 0.6838 | GIP-specific internalisation (100 nM) [7]: 0.1408 | Constitutive internalisation (100 nM) [7]: 0.543 | Internalisation, +GIP [7]: 46.5117 | Internalisation, GIP-only [7]: 9.467 | Internalisation, Vehicle [7]: 37.045

B2: L100F (protein, UniProt P48546 22-466, looked up, variant L100F)
Gastric inhibitory …: RAETGSKGQTAGELYQRWERYRRECQETLAAAEPPSGLACNGSFDMYVCWDYAAPNATARASCPWYLPWHHHVAAGFVFRQCGSDGQWGLWRDHTQCENPEKNEAFLDQRLILERLQVMYTVGYSLSLATLLLALLILSLFRRLHCTRNYIHINLFTSFMLRAAAILSRDRLLPRPGPYLGDQALALWNQALAACRTAQIVTQYCVGANYTWLLVEGVYLHSLLVLVGGSEEGHFRYYLLLGWGAPALFVIPWVIVRYLYENTQCWERNEVKAIWWIIRTPILMTILINFLIFIRILGILLSKLRTRQMRCRDYRLRLARSTLTLVPLLGVHEVVFAPVTEEQARGALRFAKLGFEIFLSSFQGFLVSVLYCFINKEVQSEIRRGWHHCRLRRSLGEEQRQLPERAFRALPSGSGPGEVPTSRGLSSGTLPGPGNEASRELESYC
AD293 Surface [1, 8]: 1.501 | AD293 Surface ([1]; paired with cAMP 100 pM): 1.501 | Surface SNAP-GIPR expression ([1]; replicate 1): 1.524 | Surface SNAP-GIPR expression ([1]; replicate 2): 1.675 | Surface SNAP-GIPR expression ([1]; replicate 3): 1.679 | Surface SNAP-GIPR expression ([1]; replicate 4): 1.13 | Surface SNAP-GIPR expression ([1]; replicate 5): 1.597 | Surface SNAP-GIPR expression ([1]; replicate 6): 1.532 | Surface SNAP-GIPR expression ([1]; replicate 7): 1.271 | Surface SNAP-GIPR expression ([1]; replicate 8): 1.313 | Surface SNAP-GIPR expression ([1]; replicate 9): 1.282 | Surface SNAP-GIPR expression ([1]; replicate 10): 1.519 | Surface SNAP-GIPR expression ([1]; replicate 11): 1.303 | Surface SNAP-GIPR expression ([1]; replicate 12): 1.295 | Surface SNAP-GIPR expression ([1]; replicate 13): 1.669 | Surface SNAP-GIPR expression ([1]; replicate 14): 1.299 | Surface SNAP-GIPR expression ([1]; replicate 15): 1.522 | Surface SNAP-GIPR expression ([1]; replicate 16): 1.442 | Surface SNAP-GIPR expression ([1]; replicate 17): 1.643 | Surface SNAP-GIPR expression ([1]; replicate 18): 1.736 | Surface SNAP-GIPR expression ([1]; replicate 19): 1.668 | Surface SNAP-GIPR expression ([1]; replicate 20): 1.712 | Surface SNAP-GIPR expression ([1]; replicate 21): 1.622 | Surface SNAP-GIPR expression ([1]; replicate 22): 1.675 | Surface SNAP-GIPR expression ([1]; replicate 23): 1.531 | Surface SNAP-GIPR expression ([1]; replicate 24): 1.559 | Surface SNAP-GIPR expression ([1]; replicate 25): 1.328 | Surface SNAP-GIPR expression ([1]; replicate 26): 1.878 | Surface SNAP-GIPR expression ([1]; replicate 27): 1.259 | Surface SNAP-GIPR expression ([1]; replicate 28): 1.697 | Surface SNAP-GIPR expression ([1]; replicate 29): 1.401 | Surface SNAP-GIPR expression ([1]; replicate 30): 1.456 | Surface SNAP-GIPR expression ([1]; replicate 31): 1.661 | Surface SNAP-GIPR expression ([1]; replicate 32): 1.58 | Surface SNAP-GIPR expression ([1]; replicate 33): 1.459 | Surface SNAP-GIPR expression ([1]; replicate 34): 1.249 | Surface SNAP-GIPR expression ([1]; replicate 35): 1.682 | Surface SNAP-GIPR expression ([1]; replicate 36): 1.611 | Surface SNAP-GIPR expression ([1]; replicate 37): 1.381 | Surface SNAP-GIPR expression ([1]; replicate 38): 1.301 | Surface SNAP-GIPR expression ([1]; replicate 39): 1.418 | Surface SNAP-GIPR expression ([1]; replicate 40): 1.406 | Surface SNAP-GIPR expression ([1]; replicate 41): 1.553 | Surface expression [2]: 1.643 | AD293 100 pM HTRF [3]: 1.607 | AD293 100 nM HTRF [3]: 1.598 | INS-1 cAMP (100 nM) [4]: 1.416 | AD293 100 pM cADDis [5]: 37.4091 | AD293 100 nM cADDis [5]: 36.85 | +GIP internalisation (100 nM) [6]: 0.8469 | GIP-specific internalisation (100 nM) [6]: 0.2452 | Constitutive internalisation (100 nM) [6]: 0.6017 | Surface expression [6]: 1.442 | Internalisation, +GIP [6]: 58.6424 | Internalisation, GIP-only [6]: 16.9646 | Internalisation, Vehicle [6]: 41.6779 | +GIP internalisation (100 nM) [7]: 0.7901 | GIP-specific internalisation (100 nM) [7]: 0.1883 | Constitutive internalisation (100 nM) [7]: 0.6018 | Internalisation, +GIP [7]: 47.6567 | Internalisation, GIP-only [7]: 11.2267 | Internalisation, Vehicle [7]: 36.43
